Legend:
HPV-16 L1 VLP = target: T1, HPV-16 L1 VLP (human papillomavirus type 16, UniProt P03101 1-505); test: indirect ELISA on coated VLP
T1 construct: also called HPV16VLP
T1 sequence: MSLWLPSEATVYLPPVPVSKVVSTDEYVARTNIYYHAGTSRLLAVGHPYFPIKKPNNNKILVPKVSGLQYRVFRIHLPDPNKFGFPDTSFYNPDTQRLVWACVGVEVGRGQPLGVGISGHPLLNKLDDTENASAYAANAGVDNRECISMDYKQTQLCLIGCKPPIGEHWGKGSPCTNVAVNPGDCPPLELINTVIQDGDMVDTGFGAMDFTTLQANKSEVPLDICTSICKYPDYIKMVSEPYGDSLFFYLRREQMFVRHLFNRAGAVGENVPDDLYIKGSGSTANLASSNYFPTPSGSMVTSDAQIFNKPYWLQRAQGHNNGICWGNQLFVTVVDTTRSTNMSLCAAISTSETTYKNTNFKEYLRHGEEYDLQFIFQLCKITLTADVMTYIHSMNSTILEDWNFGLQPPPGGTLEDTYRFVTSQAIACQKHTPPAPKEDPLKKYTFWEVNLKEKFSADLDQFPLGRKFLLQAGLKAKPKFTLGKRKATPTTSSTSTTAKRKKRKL

HPV-18 L1 VLP = target: T2, HPV-18 L1 VLP (human papillomavirus type 18, UniProt P06794 62-568); test: indirect ELISA on coated VLP
T2 construct: also called HPV18VLP
T2 sequence: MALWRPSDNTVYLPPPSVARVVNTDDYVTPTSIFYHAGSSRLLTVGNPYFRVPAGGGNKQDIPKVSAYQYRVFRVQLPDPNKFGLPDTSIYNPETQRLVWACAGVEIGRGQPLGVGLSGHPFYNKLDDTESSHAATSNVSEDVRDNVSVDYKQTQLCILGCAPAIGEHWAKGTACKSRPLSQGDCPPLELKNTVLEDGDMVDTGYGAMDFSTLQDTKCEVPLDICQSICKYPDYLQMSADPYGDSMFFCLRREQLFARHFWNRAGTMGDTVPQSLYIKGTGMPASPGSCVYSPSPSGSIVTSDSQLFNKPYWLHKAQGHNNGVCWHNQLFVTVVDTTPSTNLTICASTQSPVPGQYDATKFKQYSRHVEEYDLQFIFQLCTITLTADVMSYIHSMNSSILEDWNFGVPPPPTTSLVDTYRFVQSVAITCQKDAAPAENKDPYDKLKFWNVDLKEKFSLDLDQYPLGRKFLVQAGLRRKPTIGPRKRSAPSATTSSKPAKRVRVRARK

HPV45 VLP = target: T3, HPV45 VLP (human papillomavirus type 45, UniProt P36741 27-539); test: SPR (BIACORE 3000)
T3 sequence: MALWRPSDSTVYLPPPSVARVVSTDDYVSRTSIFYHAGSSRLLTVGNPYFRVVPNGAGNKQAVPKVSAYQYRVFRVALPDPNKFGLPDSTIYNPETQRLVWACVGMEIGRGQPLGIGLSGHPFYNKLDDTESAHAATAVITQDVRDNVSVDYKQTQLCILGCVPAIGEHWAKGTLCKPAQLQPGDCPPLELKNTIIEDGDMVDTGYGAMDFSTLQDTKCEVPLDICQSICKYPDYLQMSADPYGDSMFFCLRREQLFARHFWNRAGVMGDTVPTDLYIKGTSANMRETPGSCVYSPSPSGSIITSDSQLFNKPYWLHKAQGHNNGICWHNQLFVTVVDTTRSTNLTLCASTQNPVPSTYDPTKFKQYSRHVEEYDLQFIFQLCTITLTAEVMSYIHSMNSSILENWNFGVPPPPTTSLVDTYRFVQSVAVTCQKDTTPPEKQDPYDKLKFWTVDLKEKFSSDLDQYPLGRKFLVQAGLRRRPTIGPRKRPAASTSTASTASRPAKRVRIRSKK

HPV11 VLP = target: T4, HPV11 VLP (human papillomavirus type 11, UniProt P04012 1-501); test: SPR (BIACORE 3000)
T4 sequence: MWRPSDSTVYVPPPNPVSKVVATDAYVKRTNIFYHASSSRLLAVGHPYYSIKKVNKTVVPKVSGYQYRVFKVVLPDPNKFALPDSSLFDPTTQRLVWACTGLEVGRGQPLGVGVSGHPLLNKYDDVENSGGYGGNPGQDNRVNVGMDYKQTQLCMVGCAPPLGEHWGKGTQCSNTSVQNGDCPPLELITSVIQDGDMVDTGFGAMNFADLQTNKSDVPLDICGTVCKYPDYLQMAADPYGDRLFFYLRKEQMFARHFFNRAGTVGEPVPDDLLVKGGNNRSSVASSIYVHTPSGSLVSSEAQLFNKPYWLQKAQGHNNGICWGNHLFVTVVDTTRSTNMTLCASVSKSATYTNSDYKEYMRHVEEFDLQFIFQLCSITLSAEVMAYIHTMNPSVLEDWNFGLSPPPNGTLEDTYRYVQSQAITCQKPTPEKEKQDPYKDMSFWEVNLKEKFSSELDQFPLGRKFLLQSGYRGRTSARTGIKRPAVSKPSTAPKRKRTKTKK

HPV31 VLP = target: T5, HPV31 VLP (human papillomavirus type 31, UniProt P17388 1-504); test: SPR (BIACORE 3000)
T5 sequence: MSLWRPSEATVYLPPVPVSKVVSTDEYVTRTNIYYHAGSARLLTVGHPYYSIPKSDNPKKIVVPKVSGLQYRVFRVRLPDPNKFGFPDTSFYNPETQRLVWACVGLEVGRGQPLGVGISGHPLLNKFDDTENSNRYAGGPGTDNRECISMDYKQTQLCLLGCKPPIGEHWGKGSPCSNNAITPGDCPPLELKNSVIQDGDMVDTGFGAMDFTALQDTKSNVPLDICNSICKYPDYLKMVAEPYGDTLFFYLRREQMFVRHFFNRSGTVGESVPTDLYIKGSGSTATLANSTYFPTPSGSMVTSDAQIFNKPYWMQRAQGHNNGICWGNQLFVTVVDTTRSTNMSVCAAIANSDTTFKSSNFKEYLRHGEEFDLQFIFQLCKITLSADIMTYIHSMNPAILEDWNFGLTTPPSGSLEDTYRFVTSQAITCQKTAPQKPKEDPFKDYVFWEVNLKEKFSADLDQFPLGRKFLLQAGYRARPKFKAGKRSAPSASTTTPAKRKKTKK

HPV6 VLP = target: T6, HPV6 VLP (human papillomavirus type 6, UniProt P69899 1-500); test: SPR (BIACORE 3000)
T6 sequence: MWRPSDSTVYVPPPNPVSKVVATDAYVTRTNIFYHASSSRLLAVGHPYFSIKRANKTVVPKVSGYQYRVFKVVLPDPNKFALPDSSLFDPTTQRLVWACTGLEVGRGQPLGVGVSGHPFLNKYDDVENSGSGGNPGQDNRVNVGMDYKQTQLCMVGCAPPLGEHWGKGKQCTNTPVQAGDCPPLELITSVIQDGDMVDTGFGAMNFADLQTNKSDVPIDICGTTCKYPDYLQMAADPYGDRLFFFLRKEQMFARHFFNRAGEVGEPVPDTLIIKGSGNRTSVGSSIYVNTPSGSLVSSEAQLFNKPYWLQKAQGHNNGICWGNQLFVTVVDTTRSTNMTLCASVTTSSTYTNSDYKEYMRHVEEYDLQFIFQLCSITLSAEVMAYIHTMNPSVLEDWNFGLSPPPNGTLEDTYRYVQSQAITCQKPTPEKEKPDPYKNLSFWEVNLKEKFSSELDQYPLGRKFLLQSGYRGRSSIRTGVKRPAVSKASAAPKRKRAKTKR

B1: 单克隆抗体2F7 (杂交瘤细胞株2F7, CGMCC No.11295) (antibody, V domains shown)
VH: VQLQQSGPGLVQPSQSLSITCTVSGFSLTSYGVHWVRQSPGKGLEWLGVIWSGGSTDYNAAFISRLSISKDNSKSQVFFKMNSLQANDTAIYYCARRDGNSRYAMDYWGQGTTVTVSS
VL: DIQLTQSPSSMSASLGDRITITCQATQDIVKNLNWYQQKPGKPPSFLIYYATELAEGVPSRFSGSGSGSDYSLTISNLESEDFADYYCLQFYEFPLTFGAGTKLEI
notes: also called 克隆2F7
B1: no binding (tested: 0.3μg/ml) (HPV-16 L1 VLP); no binding (tested: 0.3μg/ml) (HPV-18 L1 VLP); no binding (tested: 20nmol/L) (HPV45 VLP). B1: no binding (tested: 20nmol/L) (HPV11 VLP); no binding (tested: 20nmol/L) (HPV31 VLP); no binding (tested: 20nmol/L) (HPV6 VLP).
